According to patent US12077566 (dated 2024):

Key:
N-cadherin = target: T1, N-cadherin (UniProt P19022 160-906, limits assumed); assay: immunofluorescence co-localization on cells
T1 construct: whole, on cells
T1 sequence (looked up): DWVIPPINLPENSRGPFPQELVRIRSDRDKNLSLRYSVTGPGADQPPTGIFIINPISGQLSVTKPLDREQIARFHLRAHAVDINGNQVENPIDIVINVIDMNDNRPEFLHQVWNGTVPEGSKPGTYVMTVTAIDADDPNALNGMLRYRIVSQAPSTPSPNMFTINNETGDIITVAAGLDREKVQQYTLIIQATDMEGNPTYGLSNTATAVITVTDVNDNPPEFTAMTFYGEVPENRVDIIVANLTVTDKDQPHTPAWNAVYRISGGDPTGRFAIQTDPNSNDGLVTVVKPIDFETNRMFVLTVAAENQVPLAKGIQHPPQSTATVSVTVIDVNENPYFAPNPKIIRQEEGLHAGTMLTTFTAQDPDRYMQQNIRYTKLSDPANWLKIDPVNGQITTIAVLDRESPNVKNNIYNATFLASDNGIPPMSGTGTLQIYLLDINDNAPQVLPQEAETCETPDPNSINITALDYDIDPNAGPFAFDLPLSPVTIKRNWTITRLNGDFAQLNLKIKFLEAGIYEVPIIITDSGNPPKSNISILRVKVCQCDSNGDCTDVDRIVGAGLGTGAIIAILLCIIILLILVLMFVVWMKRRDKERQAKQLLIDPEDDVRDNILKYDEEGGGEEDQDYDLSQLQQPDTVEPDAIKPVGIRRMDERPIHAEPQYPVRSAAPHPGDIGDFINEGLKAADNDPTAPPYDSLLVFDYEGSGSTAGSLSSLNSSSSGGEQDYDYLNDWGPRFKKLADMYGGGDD

LDLR = target: T2, LDLR (UniProt P01130 22-860, limits assumed); assay: immunofluorescence co-localization on cells
T2 construct: whole, on cells

[1] = target: T3, EGFR extracellular domain (with an amino acid sequence of 25-645) (human, UniProt P00533 25-645); assay: SPR, Biacore T200; EGFR extracellular domain on CM5 chip, rLZ-8 protein as analyte
T3 construct: range 25-645; Coupled on a CM5 chip; also called epidermal growth factor receptor extracellular domain; ligand (on the chip)

[2] = target: T3, EGFR extracellular domain (with an …); assay: EGFR affinity test (SPR)
[3] = target: T3, EGFR extracellular domain (with an …); assay: SPR, Biacore T200; EGFR extracellular domain on CM5 chip

T2 sequence (P01130 22-860 limits assumed): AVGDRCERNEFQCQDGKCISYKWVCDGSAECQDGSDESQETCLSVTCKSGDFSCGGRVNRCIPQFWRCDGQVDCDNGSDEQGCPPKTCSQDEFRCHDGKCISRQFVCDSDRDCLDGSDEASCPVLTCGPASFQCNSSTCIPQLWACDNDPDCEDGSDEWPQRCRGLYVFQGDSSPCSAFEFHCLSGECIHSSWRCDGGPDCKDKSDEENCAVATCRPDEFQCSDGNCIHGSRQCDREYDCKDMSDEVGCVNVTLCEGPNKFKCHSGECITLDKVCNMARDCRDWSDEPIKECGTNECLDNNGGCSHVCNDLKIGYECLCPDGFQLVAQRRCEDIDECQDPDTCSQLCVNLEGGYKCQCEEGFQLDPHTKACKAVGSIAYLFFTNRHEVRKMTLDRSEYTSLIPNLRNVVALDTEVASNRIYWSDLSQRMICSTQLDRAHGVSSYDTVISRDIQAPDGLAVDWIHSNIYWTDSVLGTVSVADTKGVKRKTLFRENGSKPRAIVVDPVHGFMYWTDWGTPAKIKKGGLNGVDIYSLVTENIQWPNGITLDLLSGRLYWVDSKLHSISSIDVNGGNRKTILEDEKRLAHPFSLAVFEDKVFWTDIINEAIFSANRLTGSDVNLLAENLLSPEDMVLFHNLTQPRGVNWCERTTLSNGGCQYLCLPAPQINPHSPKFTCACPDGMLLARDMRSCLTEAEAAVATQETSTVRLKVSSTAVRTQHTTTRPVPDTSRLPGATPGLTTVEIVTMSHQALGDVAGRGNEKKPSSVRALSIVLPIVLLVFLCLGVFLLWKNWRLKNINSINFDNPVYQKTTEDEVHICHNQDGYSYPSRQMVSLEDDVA

Binder	binding result (N-cadherin)	binding result (LDLR)	Kd [1]	koff [1]	kon [1]	fold increase of affinity equilibrium constant against rLZ-8 [2]	fold increase of affinity against rLZ-8 [3]
recombinant immunoregulatory protein of Ganoderma lucidum (rLZ-8) (other, also called Lingzhi-8) MSDTALIFRLAWDVKKLSFDYTPNWGRGNPNNFIDTVTFPKVLTDKAYTYRVAVSGRNLGVKPSYAVESDGSQKVNFLEYNSGYGIADTNTIQVFVVDPDTNNDFIIAQWN	no binding	no binding	–	–	–	–	–
rLZ-8 (D20H) (other, Surface potential mutant of rLZ-8) MSDTALIFRLAWDVKKLSFHYTPNWGRGNPNNFIDTVTFPKVLTDKAYTYRVAVSGRNLGVKPSYAVESDGSQKVNFLEYNSGYGIADTNTIQVFVVDPDTNNDFIIAQWN	–	–	7.36 nM	0.000432 s⁻¹	58700 M⁻¹ s⁻¹	–	–
rLZ-8 (D45A) (other, Alanine mutant of rLZ-8) MSDTALIFRLAWDVKKLSFDYTPNWGRGNPNNFIDTVTFPKVLTAKAYTYRVAVSGRNLGVKPSYAVESDGSQKVNFLEYNSGYGIADTNTIQVFVVDPDTNNDFIIAQWN	–	–	620 nM	0.000743 s⁻¹	1200 M⁻¹ s⁻¹	–	–
rLZ-8 (D70K) (other, Surface potential mutant of rLZ-8) MSDTALIFRLAWDVKKLSFDYTPNWGRGNPNNFIDTVTFPKVLTDKAYTYRVAVSGRNLGVKPSYAVESKGSQKVNFLEYNSGYGIADTNTIQVFVVDPDTNNDFIIAQWN	–	–	2.25 nM	0.000457 s⁻¹	203000 M⁻¹ s⁻¹	4 times	2.3 times
rLZ-8 (K16A/K41A) (other, Alanine mutant of rLZ-8) MSDTALIFRLAWDVKALSFDYTPNWGRGNPNNFIDTVTFPAVLTDKAYTYRVAVSGRNLGVKPSYAVESDGSQKVNFLEYNSGYGIADTNTIQVFVVDPDTNNDFIIAQWN	–	–	1240 nM	0.000273 s⁻¹	220 M⁻¹ s⁻¹	–	–
rLZ-8 (K16A/S18A/K41A/D45A) (other, Alanine mutant of rLZ-8, made by the same fermentation and purification as rLZ-8) MSDTALIFRLAWDVKALAFDYTPNWGRGNPNNFIDTVTFPAVLTAKAYTYRVAVSGRNLGVKPSYAVESDGSQKVNFLEYNSGYGIADTNTIQVFVVDPDTNNDFIIAQWN	–	–	30600 nM	0.00423 s⁻¹	139 M⁻¹ s⁻¹	–	–
rLZ-8 (K41D/K46E/K74E) (other, Mutant of rLZ-8) MSDTALIFRLAWDVKKLSFDYTPNWGRGNPNNFIDTVTFPDVLTDEAYTYRVAVSGRNLGVKPSYAVESDGSQEVNFLEYNSGYGIADTNTIQVFVVDPDTNNDFIIAQWN	–	–	12.2 nM	0.000431 s⁻¹	35300 M⁻¹ s⁻¹	–	–
rLZ-8 (K46E/K74E) (other, Mutant of rLZ-8) MSDTALIFRLAWDVKKLSFDYTPNWGRGNPNNFIDTVTFPKVLTDEAYTYRVAVSGRNLGVKPSYAVESDGSQEVNFLEYNSGYGIADTNTIQVFVVDPDTNNDFIIAQWN	–	–	9.35 nM	0.000614 s⁻¹	65700 M⁻¹ s⁻¹	–	–
rLZ-8 (L17K) (other, Surface potential mutant of rLZ-8) MSDTALIFRLAWDVKKKSFDYTPNWGRGNPNNFIDTVTFPKVLTDKAYTYRVAVSGRNLGVKPSYAVESDGSQKVNFLEYNSGYGIADTNTIQVFVVDPDTNNDFIIAQWN	–	–	7.49 nM	7.56e-05 s⁻¹	10100 M⁻¹ s⁻¹	–	–
rLZ-8 (L17K/D70K) (other, Surface potential mutant of rLZ-8) MSDTALIFRLAWDVKKKSFDYTPNWGRGNPNNFIDTVTFPKVLTDKAYTYRVAVSGRNLGVKPSYAVESKGSQKVNFLEYNSGYGIADTNTIQVFVVDPDTNNDFIIAQWN	–	–	1.53 nM	0.000329 s⁻¹	215000 M⁻¹ s⁻¹	–	6 times
rLZ-8 (R9A) (other, Alanine mutant of rLZ-8) MSDTALIFALAWDVKKLSFDYTPNWGRGNPNNFIDTVTFPKVLTDKAYTYRVAVSGRNLGVKPSYAVESDGSQKVNFLEYNSGYGIADTNTIQVFVVDPDTNNDFIIAQWN	–	–	8.63 nM	0.000528 s⁻¹	61200 M⁻¹ s⁻¹	–	–
rLZ-8 (S18A) (other, Alanine mutant of rLZ-8) MSDTALIFRLAWDVKKLAFDYTPNWGRGNPNNFIDTVTFPKVLTDKAYTYRVAVSGRNLGVKPSYAVESDGSQKVNFLEYNSGYGIADTNTIQVFVVDPDTNNDFIIAQWN	–	–	489 nM	0.00182 s⁻¹	3720 M⁻¹ s⁻¹	–	–
